Test results published in the DeepSol protein solubility set.

test: soluble on expression in E. coli; label from the status in PepcDB or PDB records

Sequence | soluble on expression in E. coli
MSLKHLKGNKNTFQKRMYCKKTEIDLSKSGTGLFPGAFYMNRHVKRVILPDYADTVPANLFKGCINLKEVTLPIDPNIGEAAFEGCISLTDIHIPLCIGSIATNAFRGCRENIRFYADSPAVNPKTLKQHIEKELGHSIELYNASGNLVESTEGHHHHHH | soluble
MSLKIDIHPLTHDPTSAWKELSKSQRVIKINTKPPAVDVPSNKVRVVCMSDTHSLTHHIKFDIPDGDIFIHAGDFTRCGKLDEVVDFNEWLKKLPHKHKLVIAGNHELSFDHTFTHPFQNASACCKKTGSTLLDEIPTLGNSKESLAEAVKTENIRQYLSSCTYLQDECVELYGLKIYGTPWQPEFCKWAFNVKRGQACLEKWEQIPENVDILVTHTPPVGHGDLCCSGVRAGCVELLATVQQRVKPKYHVFGHVHEGYGITSDGRIIFVNASTCDINYLPNNQPIVFDVTLPKGRTKDEGHHHHHH | soluble
MSLKIKFKRLDYQEQCRDQILGVFKGIDLKEPENDAQRISNPVFEIGAIKDLLLENIENLRSKQKITQGSVGIDKSLNCDILMETGTGKTFCFLECVYALHKNHHLSKFIVLTPSNAIKLGVLKSVEITREFFKSEYSNTHLESYEDIERFILASNHKCCVLVMTFSAFNKEKNTINKSCLENTNLFNGATSYMQALVSMRPIVIMDEPHRFLGDKTKKYLEQLNALLTLRFGATFKDDYNNLIYTLDSKKAFDCALVKSISVASVGESNECFLELKGIEKKEAAINYTDLENKTQSVKVKEHDNLGVVTQISALEDYIVEKITKTEIRFLNGFNLLLDQKEPFSHLLEGEQEVMLKEAIKSHFEREEGLFKKGIKALCMVFISGVNSYLSENEKPAKLALLFEKLYQQKLEEVLKKPLDENYRAYLECTREDIKKVHGGYFAKSKKEGDETKTIELILKEKEKLLSFDSDLRFIFSQWALQEGWDNPNVMTICKLAPSHSNITKLQQIGRGLRLAVNDKGERITKEHADFDFVNELVVIVPQVEGDFVGAIQQEISEHSLIKQEFSAEELEKSGVVKKGRYGFLLETLEGLGFGEKTGDENFKLTLNQNEFLEKEPELEKLKDEKYLDFEKLKDFLKDRLIGNSRVRDKNERKSEKIKINKENFKKFETLWESLNHQARIAYAIDSESLIDEIVKNINSSFNVSSKIVSVTTHKKVETMGNNAKTEIFERENACVWSLHEFISALSNKVKLSFKSVAKVLENIDENKFNEIKKNEQEGLRRLEELFLEIIYQNIKDKISYQMRETTIKNRKNDAFYDEKGEIREFLDGSLGADKYEIKNSSVREKCLYENFMQVDSEIEKDTIEESNDTKIIVFGKLPRVKIPIGLNQTYSPDFGYVVENNDKKVLLVVETKGVDKKSELRPEEERKISTAKKFFEALKKQGVNIEYKTKMEKDQLSALINEVLNRKDEGHHHHHH | not soluble
MSLKILLLEDEVMLNESICEYLDSEGHHVESFFNGLAALEAIKENSYDLLVLDINVPGIDGLSFLEKIHELKIHVSVIYISALVDIEDISRAYTLGCHDYLKKPFHLKELSLRVDRIKLSSVVPRVHLRLCKNYSYDQENSTLLFNQEVQILTKRQAQIIDLLSRNRGRIVDFEQFQTYVWSEQIVDNATIRAEINRLKKNLKEDFVINVRGMGYMIDKEGHHHHHH | not soluble
MSLKILLMLLCVSVLGCSKNSVESEKPVDVLLIGGGIMSATLGTYLNELEPGWTIEMVERLDKVAEESSNGWNNAGTGHSAFCELNYTSEAADGSMDISKAVAINENFEISKQFWAYQVDRKVLNDPKSFINNVPHMSFVWGDDNVAFLKKRHAALQHSSLFRGMEYSEDPEQIKQWVPLVMEGREPGQKIAATRMSIGTDVNFGEITRQLVGSLSAKDTFKLRLQHEVRDLKRNDDNTWTVTMADLANGDKETSVKARFVFIGAGGGALKLLQMSGIPEAEGYAGFPVGGSFLATTNPDVVKRHLAKVYGKASVGSPPMSVPHLDTRMIDGKPVLLFGPFATFSTKFLKNGSLWDLPGSVTSGNIGPMFNAGIDNFDLSQYLIGQLMLSQDDRMASLREYFPEARDEDWKLVQAGQRVQIIKKDAEKGGVLQFGTEVVTAADGSVAALLGASPGASTAAPIMLSVLEKAFKDKVATPEWQARLKEIVPSYGRKLNNDIELTNSTRAWSSERLQLIHVPVQEGGSHHHHHH | soluble
MSLKIRDPYIDERTNMVVIRESPDVVRLAERLVELQDRNDSEVVLEVEVLEVSSTKLTQLGVQYPNSFTLTPLSATGASSLTLSDFKGLNSDRIGVSTPNVVLNLRRELGDTDLLANPKIRAKNHEKAKILIGDKLPVITTTSTSTGFVSESVQYIDVGLKLEVEPSISPDDEVSMKINLEVSSLTNQITTRSGTVAYQIGTRTANTVLKLHDGETQLLAGLIKTQQTSSAARIPGLGDIPLLGRLFSSQTDNGVRNEIVLSITPRVVKPSHRPDTNEGHHHHHH | soluble
MSLKISDGNWLIQPGLNLIHPLQVFEVEQQDNEMVVYAAPRDVRERTWQLDTPLFTLRFFSPQEGIVGVRIEHFQGALNNGPHYPLNILQDVKVTIENTERYAEFKSGNLSARVSKGEFWSLDFLRNGERITGSQVKNNGYVQDTNNQRNYMFERLDLGVGETVYGLGERFTALVRNGQTVETWNRDGGTSTEQAYKNIPFYMTNRGYGVLVNHPQCVSFEVGSEKVSKVQFSVESEYLEYFVIDGPTPKAVLDRYTRFTGRPALPPAWSFGLWLTTSFTTNYDEATVNSFIDGMAERNLPLHVFHFDCFWMKAFQWCDFEWDPLTFPDPEGMIRRLKAKGLKICVWINPYIGQKSPVFKELQEKGYLLKRPDGSLWQWDKWQPGLAIYDFTNPDACKWYADKLKGLVAMGVDCFKTDFGERIPTDVQWFDGSDPQKMHNHYAYIYNELVWNVLKDTVGEEEAVLFARSASVGAQKFPVHWGGDCYANYESMAESLRGGLSIGLSGFGFWSHDIGGFENTAPAHVYKRWCAFGLLSSHSRLHGSKSYRVPWAYDDESCDVVRFFTQLKCRMMPYLYREAARANARGTPMMRAMMMEFPDDPACDYLDRQYMLGDNVMVAPVFTEAGDVQFYLPEGRWTHLWHNDELDGSRWHKQQHGFLSLPVYVRDNTLLALGNNDQRPNYVWHEGTAFHLFNLQDGHEAVCEVPAADGSVIFTLKAARTGNTITVTGAGEAKNWTLCLRNVVKVNGLQDGSQAESEQGLVVKPQGNALTITLEGGSHHHHHH | soluble
MSLKITKIETTLFEYKLDRSMGDANSPMGRKKGSGCVLELITDEGISGISIGGQNALPQINSIFDGILLNNDPKAIFSIWKRMVEKYFKGGHDGIANDAISAIDVALWDLKAKINEEPLWKTLGGNNNKVNVYASDIALPINDDDLFNWYSKMSDKFGFKGGKLKVGLDQESDLKRLELMHNALSKNCDDPILYVDSNEYWSPKQTIRNVSEMEERFTLGWIEEPARRWDFLGLKKVSDSLQTPVCAGENLDTLGDFLPYFHHRSADVIQVSHGMTGISGALQIADAAYALELPVTLGGSSGIIHAHIANAIPNCITVEVPHPEPETKVFTSDVTIKDGYAFVGNKPGMGIEVNYEELAKHKVEKVSQKAGPSPYGRRPGAGLYEIPPTKEEISEGQSKEGHHHHHH | soluble
MSLKIVVTKFGGSSLADSNQFKKVKGIIDSDANRKYIIPSAPGKRTNKDYKITDLLYLCNAHVKNGIPFDDVFKLISQRYTEIVSELNIDMDIAYYLEKVKKNIENGASSDYAASRGEYLNGVILAKYLNAEFIDAAEVIFFDKSGCFDEKKSYEKIKEKVLSCNKAVIPGFYGSSFNGDVKTFSRGGSDVTGSIISAGVNADLYENWTDVSGFLMADPRIVENPKTISKISYKELRELSYMGATVLHEEAIFPVKDSGIPINIKNTNKPSDPGTLILSDTHKEINLGTITGIAGKKNFTVIAIEKALLNSEVGFCRKILSILEMYGVSFEHMPSGVDSVSLVIEDCKLDGKCDKIIEEIKKQCNPDSIEIHPNMALVATVGTGMAKTKGIANKIFTALSKENVNIRMIDQGSSEINVIVGVETVDFEKAVKSIYNAFNEGHHHHHH | soluble
MSLKIVYITENAEKLAKDVKSVFDYYFYDNEVFNIKDFEITGNETGFVFIMASGIVLRKYIPEIQNDKLKDPFVILMDESKKHVVPLLSNHIGGGNYFSDLIGNFLNLDVVKTTATDVNGKIGIDELSKIYFLENPLKKDILSVNKKVLSEKPDLIIPKAWKTSKKLLNSYNVSFHDESHVLVDDIVLKPKTVSLGLGSRRNIEKSKVYWAVKKALYLRDIPTWRIDTFSTVSVKKDEYGILKTAERFDKDLFIFEIDELNEIYSKYPLIRSEFVFKTIGTYGVSEPCAILGISKITGETDFEMKKLVLNKMKKDGVSVSIAVEGHHHHHH | not soluble
MSLKKAKLIFKDNTPFSLDFDDFYFNSKDGLNESKFVYTHSFEWKNQENFIIAESGFGIGLNFFLTLKRLLETTPSKRPKKLFYISVEAFYIEKEQLREIYQKLEFYEEFKELLEQFLKFYPKAKEGIYRFYFEDCFLDLVFEDIAVLKELDFKADVWYLDGFSPNKNLQMFDENLIFEVARLSKKNTQICTFSSASFLQKNLKKYGFRVEKTKGFRKREMIKAYLENELEFKDKEAYFSRTEGHHHHHH | soluble
MSLKKILIIVPDGGMLFESAGIADILMQANRLHPEGAREICYQVKLATTQPHQVIHGQSGLNLLADHRLHEIDPREPLDTIMITGRGQNPQEGMAVVDWLRLAAPHARRIVSICGGAMLLAQTGLLDGRRATTHWKLLETMQAEFPQIRVEGGPLYIQDEHIWTSGGVSSGFDLTLALVEEDYGEGHHHHHH | not soluble
MSLKKKVVIVGGGFTGLNTARILSNRKDVEVTLIDRKNYHLFQPLLYQVAMAALGEGDIATPLRNMLAGYDNVTVFKGNVCNVDLEQKKVKTDFGDIEYDYLVLACGAQHHYFGKNDWEEHAPGLKNLAQASEIRRRVMEAYEAAERTNDMKERKKQLTFVIVGGGPTGVELAGSIGEMSRYTLSKFYRHIDPKLTRIFIVEAAERILGTFSPELSSKATRELEKLGVQVWTSSMVSDVDADGVQIGRERIEAATVLWAAGVKASEIGQNMGVQTDRSGRIMVEADLSLPGHPEVFVGGDQACYTLENGSTLPGMAPVAMQEGKAIGRMILDDLKGKPRKPFKYRDKGQMATIGRNRAIVEIGNLKFDGEGHHHHHH | soluble
MSLKLIASDMDGTLLDAKMSITNDNASAIREAERLGIEFMVATGRAYTEAKPALEEAGIDCAMITLNGAQVFDKDGHSLFTAGIEKETVTEVLTILSQHNVYYEISTNKGIFSEHQEKRIENFAAHIAESMPHLTYKVAIAMASAHLSLLHITYVDRLDDILKDDSIEVLKIIGFSMDGPKVLGPAGMEVEELDDLVVTSSALNNIEINHRLAQKGIAVARVAKERGIPAEQVMTIGDNLNDVSMIQWAGVSFAMGNAELELKEYAKYETATNLENGVGEAILRAIREDEGHHHHHH | soluble
MSLKLIATDMDGTLLRSNGEFPNEFPLILDSLLNKNIMFSVASGRQYFTLKDNMAGFEDKITFIAENGAFIVKDGKELFAKTLDRDMLSKVVDDAKKVPDCKLVLCGKKSAYVLDKSSAFIEEVEKYYHKSAVVNSLDEIDDEFFKIAICDYKGSANNSNVLLSPKWGKLFQLTVSGDIWLDIGRNDVNKGTAIKFLQDKFNINENETMAFGDYYNDVSMLQSVYHSYVMENAPDGVKKHGRFIAKSNDESGVIQVIKNKVLELGAEGHHHHHH | soluble
MSLKLITCDLDGTLLNSSMEISDANVQAIKRAQENGIEFMVASGRAPHESQPMLKEYWIDCSFINLNGGLVFDTAGNLIVKNPLKLETAKKICRLLKKEGFYFELVTSNHVYSEDLSQRITNVAHLMVELNPMLTFKEAVLVSASKPAIVSIQQVPSYEDLMDEPGTEVMKILVFDSRGQYAFTDVIKKIEEIDKLSITSSAADNIEINAASAQKGQSLLDYAAAKGIKREEIAAIGDNLNDESMIQAAGTGVAMGNAVPQIKTIASFVTKSNNEDGVAWAIDKIIADNQKEGHHHHHH | soluble
